Test results taken from the RNAGym collection of RNA variant scans (doi:10.7554/elife.80360).

B1: HDV Ribozyme (parent)
chain: GGCCGGCAUGGUCCCAGCCUCCUCGCUGGCGCCGGCUGGGCAACAUUCCGAGGGGACCGUCCCCUCGGUAAUGGCGAAUGGGACCCA

Variants of: B1
Experiment: self-cleavage, relative activity (ratio to wild type); higher = more cleavage; co-transcriptional

Row | Variant | self-cleavage
1 | GGCCGGCAUGGUCCCAGCCGCCUCGCUGGCGCCGCCUGGGCAACAUUCCGAGGGGACCGUCCCCUCGGUAAUGGCGAAUGGGACCCA | 0
2 | GGCCGGCAUGGUCCCAGCCGCCUCGCUGGCGCCGGCUGGGCAACAUUCCGAGGGGACCGUCCCCUCGGUAAUGGCGAAUGGUACCCA | 0.104
3 | GGCCGGCAUGGUCCCAGCCGCCUCGCUGGCGCCGGCUGGGCAACAUUCCGAGGGGACCAUCCCCUCGGUAAUGGCGAAUGGGACCCA | 0.268
4 | GGCCGGCAUGGUCCCAGCCGCCUCGCUGGCGCCGGCUGGGCAACAUUCCGAGGGGACCGUCCCCUCGGUAAUGGCGAAUGGGACGCA | 0.158
5 | GGCCGGCAUGGUCCCAGCCGCCUCGCUGGCGCCGGCUGGGCAACAUUCCGAGGGGACCGUCCCCUCGGUAAUGGCGAAUGGGACUCA | 0.0554
6 | GGCCGGCAUGGUCCCAGCCGCCUCGCUGGCGCCGGCUGGGCAACAUUCCGAGGGGACCGUCCCCUCGGUAAUGGCGAAUGGGACACA | 0.277
7 | GGCCGGCAUGGUCCCAGCCGCCUCGCUGGCGCCGGCUGGGCAACAUUCCGAGGGGACCGUCCCCUCGGUAAUGGCGAAUGGGAACCA | 0.222
8 | GGCCGGCAUGGUCCCAGCCGCCUCGCUGGCGCCGGCUGGGCAACAUUCCGAGGGGACCGUCCCCUCGGUAAUGGCGAAUGGGAUCCA | 0.185
9 | GGCCGGCAUGGUCCCAGCCGCCUCGCUGGCGCCGGCUGGGCAACAUUCCCAGGGGACCGUCCCCUCGGUAAUGGCGAAUGGGACCCA | 0.138
10 | GGCCGGCAUGGUCCCAGCCGCCUCGCUGGCGCCGGCUGGGCAACAUUCCUAGGGGACCGUCCCCUCGGUAAUGGCGAAUGGGACCCA | 0.18
11 | GGCCGGCAUGGUCCCAGCCGCCUCGCUGGCGCCGGCUGGGCAACAUUCCGAGGGGACCGACCCCUCGGUAAUGGCGAAUGGGACCCA | 0
12 | GGCCGGCAUGGUCCCAGCCGCCUCGCUGGCGCCGGCUAGGCAACAUUCCGAGGGGACCGUCCCCUCGGUAAUGGCGAAUGGGACCCA | 0.0573
13 | GGCCGGCAUGGUCCCAGCCGCCUCGCUGGCGCCGGCUCGGCAACAUUCCGAGGGGACCGUCCCCUCGGUAAUGGCGAAUGGGACCCA | 0.0489
14 | GGCCGGCAUGGUCCCAGCCGCCUCGCUGGCGCCGGCUGGGCAACAUUCCGAGGGGACCGUCCCCUCGGUAAUGGCAAAUGGGACCCA | 0.214
15 | GGCCGGCAUGGUCCCAGCCGCCUCGCUGGCGCCGGCUGGGCAACAUUCCGAGGGGACCGUCCCCUCGGUAAUGGCCAAUGGGACCCA | 0.35
16 | GGCCGGCAUGGUCCCAGCCGCCUCGCUGGCGCCGGCAGGGCAACAUUCCGAGGGGACCGUCCCCUCGGUAAUGGCGAAUGGGACCCA | 0
17 | GGCCGGCAUGGUCCCAGCCGCCUCGCCGGCGCCGGCUGGGCAACAUUCCGAGGGGACCGUCCCCUCGGUAAUGGCGAAUGGGACCCA | 0
18 | GGCCGGCAUGGUCCCAGCCGCCUCGCGGGCGCCGGCUGGGCAACAUUCCGAGGGGACCGUCCCCUCGGUAAUGGCGAAUGGGACCCA | 0.332
19 | GGCCGGCAUGGUCCCAGCCGCCUCGCAGGCGCCGGCUGGGCAACAUUCCGAGGGGACCGUCCCCUCGGUAAUGGCGAAUGGGACCCA | 0.266
20 | GGCCGGCAUGGUCCCAGCCGCCUCGCUGGCGCCGGCUGGGCAACAUUCCGAGCGGACCGUCCCCUCGGUAAUGGCGAAUGGGACCCA | 0.262
21 | GGCCGGCAUGGUCCCAGCCGCCUCGCUGGCGCCGGCUGGGCAACAUUCCGAGGGGACCGUCCCCUCGCUAAUGGCGAAUGGGACCCA | 0.166
22 | GGCCGGCAUGGUCCCAGCCGCCUCGCUGGCGCCGGCUGGGCAACAUUCCGAGGGGACCGUCCCCUCGUUAAUGGCGAAUGGGACCCA | 0.201

Row | Variant | self-cleavage
23 | GGCCGGCAUGGUCCCAGCCGCCUCGCUGGCGCCGGCUGGGCAACAUUCCGAGGGGACCGUCCCCUCGGUAAUGGCGAAUGUGACCCA | 0
24 | GGCCGGCAUGGUCCCAGCCGCCUCGCUGGCGCCGGCUGGGCAACAUUCCGAGGGGACCGUCCCCUCGGUAAUGGCGAAUGAGACCCA | 0.108
25 | GGCCGGCAUGGUCCCAGCCGCCUCGCUGGCGCCGGCUGGGCAACAUUCCGAGGGGACCGUCCCCUCGGUAAUGGCGAAUGGGACCGA | 0.287
26 | GGCCGGCAUGGUCCCAGCCGCCUCGCUGGCGCCGGCUGGGCAACAUUCCGAGGGGACCGUCCCCUCGGUAAUGGCGAAUGGGACCAA | 0.237
27 | GGCCGGCAUGGUCCCAGCCGCCUCGCUGGCGCCUGCUGGGCAACAUUCCGAGGGGACCGUCCCCUCGGUAAUGGCGAAUGGGACCCA | 0.0519
28 | GGCCGGCAUGGUCCCAGCCGCCUCGCUGGCGCCCGCUGGGCAACAUUCCGAGGGGACCGUCCCCUCGGUAAUGGCGAAUGGGACCCA | 0.138
29 | GGCCGGCAUGGUCCCAGCCGCCUCGCUGGCGCCGGCUGGGCAACAUUCCGAGGCGACCGUCCCCUCGGUAAUGGCGAAUGGGACCCA | 0.571
30 | GGCCGGCAUGGUCCCAGCCGCCUCGCUGGCGCCGGCUGGGCAACAUUCCGAGGGGACCGUCCCCUCGGUAAUCGCGAAUGGGACCCA | 0
31 | GGCCGGCAUGGUCCCAGCCGCCUCGCUGGCGCCGGCUGGGCAACAUUCCGAGGGGACCGUCCCCUCGGUAAUUGCGAAUGGGACCCA | 0.136
32 | GGCCGGCAUGGUCCCAGCCGCCUCGCUGGCGCCGGCUGGGCAACAUUCCGAGGGGACCGUCCCCUCGGUAAGGGCGAAUGGGACCCA | 0
33 | GGCCGGCAUGGUCCCAGCCGCCUCGCUGGCGCCGGCUGGGCAACAUUCCGAGGGGACCGUCCUCUCGGUAAUGGCGAAUGGGACCCA | 0.297
34 | GGCCGGCAUGGUCCCAGCCGCCUCGCUGGCGCCGGCUGGGCAACAUUCCGAGGGCACCGUCCCCUCGGUAAUGGCGAAUGGGACCCA | 0.0978
35 | GGCCGGCAUGGUCCCAGCCGCCUCGCUGGCGCCGGCUGGGCAACAUUCCGAGGGAACCGUCCCCUCGGUAAUGGCGAAUGGGACCCA | 0.356
36 | GGCCGGCAUGGUCCCAGCCGCCGCGCUGGCGCCGGCUGGGCAACAUUCCGAGGGGACCGUCCCCUCGGUAAUGGCGAAUGGGACCCA | 0.185
37 | GGCCGGCAUGGUCCCAGCCGCCUCGCUGGCGCCGGCUGGGCAACAUCCCGAGGGGACCGUCCCCUCGGUAAUGGCGAAUGGGACCCA | 0.133
38 | GGCCGGCAUGGUCCCAGCCGCCUCGCUGGCGCCGGCUGGGCAACAUUCCGAGGGGACCGUCCCGUCGGUAAUGGCGAAUGGGACCCA | 0.196
39 | GGCCGGCAUGGUCCCAGCCGCCUCGCUGGCGCCGGCUGGGCAACAUUCCGAGGGGACCGUCCCAUCGGUAAUGGCGAAUGGGACCCA | 0.178
40 | GGCCGGCAUGGUCCCAGCCGCCUCGCUCGCGCCGGCUGGGCAACAUUCCGAGGGGACCGUCCCCUCGGUAAUGGCGAAUGGGACCCA | 0
41 | GGCCGGCAUGGUCCCAGCCGCCUCGCUAGCGCCGGCUGGGCAACAUUCCGAGGGGACCGUCCCCUCGGUAAUGGCGAAUGGGACCCA | 0.0536
42 | GGCCGGCAUGGUCCCAGCCGCCUCGCUUGCGCCGGCUGGGCAACAUUCCGAGGGGACCGUCCCCUCGGUAAUGGCGAAUGGGACCCA | 0.0831
43 | GGCCGGCAUGGUCCCAGCCGCCUCGCUGGCGCCGGCUGGGCAACAUUCCGAGGGGACCGUCCCCUCGGUAAUGGAGAAUGGGACCCA | 0.0978
44 | GGCCGGCAUGGUCCCAGCCGCCUCGCUGGCGCCGGCUGGGCAACAUUCCGAGGGGACCGUCCCCUCGGUAAUGGGGAAUGGGACCCA | 0

Row | Variant | self-cleavage
45 | GGCCGGCAUGGUCCCAGCCGCCUCGCUGGCGCCGGCUGGGCAACAUUCCGAGGGGACCGUCCCCUCGGUAAUGGCGAAUCGGACCCA | 0.0519
46 | GGCCGGCAUGGUCCCAGCCGCCUCGCUGGCUCCGGCUGGGCAACAUUCCGAGGGGACCGUCCCCUCGGUAAUGGCGAAUGGGACCCA | 0.102
47 | GGCCGGCAUGGUCCCAGCCGCCUCGCUGACGCCGGCUGGGCAACAUUCCGAGGGGACCGUCCCCUCGGUAAUGGCGAAUGGGACCCA | 0.161
48 | GGCCGGCAUGGUCCCAGCCGCCUCGCUGGCGCCGGCUGGGCAACAUUCCGAGGGGACCGUCCCCUCUGUAAUGGCGAAUGGGACCCA | 0.467
49 | GGCCGGCAUGGUCCCAGCCGCCUCGCUGGCGCCGGCUGGGCAACAUUCCGAGGGGACCGUCCCCUCAGUAAUGGCGAAUGGGACCCA | 0.156
50 | GGCCGGCAUGGUCCCAGCCGCCUCGCUGGCGCCGGCUGGGCAACAUUCCGAGGGGACCGUCCCCUUGGUAAUGGCGAAUGGGACCCA | 0.148
51 | GGCCGGCAUGGUCCCAGCCGCCUCGCUGGCGCCGGCUGGGCAACAUUCCGAGGGGACCGUCCCCUCGGUAAUGACGAAUGGGACCCA | 0.0923
52 | GGCCGGCAUGGUCCCAGCCGCCUCCCUGGCGCCGGCUGGGCAACAUUCCGAGGGGACCGUCCCCUCGGUAAUGGCGAAUGGGACCCA | 0
53 | GGCCGGCAUGGUCCCAGCCGCCUCGCUGGCGCCGGCUGGGCAACAUUCCGAAGGGACCGUCCCCUCGGUAAUGGCGAAUGGGACCCA | 0.499
54 | GGCCGGCAUGGUCCCAGCCGCCUCGCUGGCGCCGGCUGGGCAACAUUCCGACGGGACCGUCCCCUCGGUAAUGGCGAAUGGGACCCA | 0.256
55 | GGCCGGCAUGGUCCCAGCCGCCUCGCUGGCGCCGGCUGGACAACAUUCCGAGGGGACCGUCCCCUCGGUAAUGGCGAAUGGGACCCA | 0.374
56 | GGCCGGCAUGGUCCCAGCCGCCUCGCUGGCGCCGGCUGCGCAACAUUCCGAGGGGACCGUCCCCUCGGUAAUGGCGAAUGGGACCCA | 0.175
57 | GGCCGGCAUGGUCCCAGCCGCCUCGCUGGCGCCGGCUGUGCAACAUUCCGAGGGGACCGUCCCCUCGGUAAUGGCGAAUGGGACCCA | 0.0369
58 | GGCCGGCAUGGUCCCAGCCGCCUCGCUGGCGCCGGCUGAGCAACAUUCCGAGGGGACCGUCCCCUCGGUAAUGGCGAAUGGGACCCA | 0.0396
59 | GGCCGGCAUGGUCCCAGCCGCCUCGCUGGCGCCGGCUGGGCAACAGUCCGAGGGGACCGUCCCCUCGGUAAUGGCGAAUGGGACCCA | 0
60 | GGCCGGCAUGGUCCCAGCCGCCUCGCUGGCGCCGGCUGGGCAACAUUCCGAGGGGACCGUCCCCUCGGAAAUGGCGAAUGGGACCCA | 0
61 | GGCCGGCAUGGUCCCAGCCGCCUCGCUGGCGCCGGCUGGGCAACAUUCCGAGGGGACCGUCCCCUCGGCAAUGGCGAAUGGGACCCA | 0.185
62 | GGCCGGCAUGGUCCCAGCCGCCUCGCUGGCGCCGGCUGGGCAACAUUCCGAGGGGACCGUCCCCUCGGUAAUGGCGAACGGGACCCA | 0.0773
63 | GGCCGGCAUGGUCCCAGCCGCCUCGCUGGCGCCGGCUGGGCAACAUUCCGAGGGGACCGUCCCCUCGGUAAUGGCGAAGGGGACCCA | 0.208
64 | GGCCGGCAUGGUCCCAGCCGCCUCGCUGGCGCCGGCUGGGCAACAUUCCGAGGGGACCGUCCCCUCGGUAAUGGCGAAAGGGACCCA | 0.175
